B1: Regulator of nonsense transcripts 2 (Homo sapiens), Q9HAU5 (parent)
chain: MPAERKKPASMEEKDSLPNNKEKDCSERRTVSSKERPKDDIKLTAKKEVSKAPEDKKKRLEDDKRKKEDKERKKKDEEKVKAEEESKKKEEEEKKKHQEEERKKQEEQAKRQQEEEAAAQMKEKEESIQLHQEAWERHHLRKELRSKNQNAPDSRPEENFFSRLDSSLKKNTAFVKKLKTITEQQRDSLSHDFNGLNLSKYIAEAVASIVEAKLKISDVNCAVHLCSLFHQRYADFAPSLLQVWKKHFEARKEEKTPNITKLRTDLRFIAELTIVGIFTDKEGLSLIYEQLKNIINADRESHTHVSVVISFCRHCGDDIAGLVPRKVKSAAEKFNLSFPPSEIISPEKQQPFQNLLKEYFTSLTKHLKRDHRELQNTERQNRRILHSKGELSEDRHKQYEEFAMSYQKLLANSQSLADLLDENMPDLPQDKPTPEEHGPGIDIFTPGKPGEYDLEGGIWEDEDARNFYENLIDLKAFVPAILFKDNEKSCQNKESNKDDTKEAKESKENKEVSSPDDLELELENLEINDDTLELEGGDEAEDLTKKLLDEQEQEDEEASTGSHLKLIVDAFLQQLPNCVNRDLIDKAAMDFCMNMNTKANRKKLVRALFIVPRQRLDLLPFYARLVATLHPCMSDVAEDLCSMLRGDFRFHVRKKDQINIETKNKTVRFIGELTKFKMFTKNDTLHCLKMLLSDFSHHHIEMACTLLETCGRFLFRSPESHLRTSVLLEQMMRKKQAMHLDARYVTMVENAYYYCNPPPAEKTVKKKRPPLQEYVRKLLYKDLSKVTTEKVLRQMRKLPWQDQEVKDYVICCMINIWNVKYNSIHCVANLLAGLVLYQEDVGIHVVDGVLEDIRLGMEVNQPKFNQRRISSAKFLGELYNYRMVESAVIFRTLYSFTSFGVNPDGSPSSLDPPEHLFRIRLVCTILDTCGQYFDRGSSKRKLDCFLVYFQRYVWWKKSLEVWTKDHPFPIDIDYMISDTLELLRPKIKLCNSLEESIRQVQDLEREFLIKLGLVNDKDSKDSMTEGENLEEDEEEEEGGAETEEQSGNESEVNEPEEEEGSDNDDDEGEEEEEENTDYLTDSNKENETDEENTEVMIKGGGLKHVPCVEDEDFIQALDKMMLENLQQRSGESVKVHQLDVAIPLHLKSQLRKGPPLGGGEGEAESADTMPFVMLTRKGNKQQFKILNVPMSSQLAANHWNQQQAEQEERMRMKKLTLDINERQEQEDYQEMLQSLAQRPAPANTNRERRPRYQHPKGAPNADLIFKTGGRRR
partner: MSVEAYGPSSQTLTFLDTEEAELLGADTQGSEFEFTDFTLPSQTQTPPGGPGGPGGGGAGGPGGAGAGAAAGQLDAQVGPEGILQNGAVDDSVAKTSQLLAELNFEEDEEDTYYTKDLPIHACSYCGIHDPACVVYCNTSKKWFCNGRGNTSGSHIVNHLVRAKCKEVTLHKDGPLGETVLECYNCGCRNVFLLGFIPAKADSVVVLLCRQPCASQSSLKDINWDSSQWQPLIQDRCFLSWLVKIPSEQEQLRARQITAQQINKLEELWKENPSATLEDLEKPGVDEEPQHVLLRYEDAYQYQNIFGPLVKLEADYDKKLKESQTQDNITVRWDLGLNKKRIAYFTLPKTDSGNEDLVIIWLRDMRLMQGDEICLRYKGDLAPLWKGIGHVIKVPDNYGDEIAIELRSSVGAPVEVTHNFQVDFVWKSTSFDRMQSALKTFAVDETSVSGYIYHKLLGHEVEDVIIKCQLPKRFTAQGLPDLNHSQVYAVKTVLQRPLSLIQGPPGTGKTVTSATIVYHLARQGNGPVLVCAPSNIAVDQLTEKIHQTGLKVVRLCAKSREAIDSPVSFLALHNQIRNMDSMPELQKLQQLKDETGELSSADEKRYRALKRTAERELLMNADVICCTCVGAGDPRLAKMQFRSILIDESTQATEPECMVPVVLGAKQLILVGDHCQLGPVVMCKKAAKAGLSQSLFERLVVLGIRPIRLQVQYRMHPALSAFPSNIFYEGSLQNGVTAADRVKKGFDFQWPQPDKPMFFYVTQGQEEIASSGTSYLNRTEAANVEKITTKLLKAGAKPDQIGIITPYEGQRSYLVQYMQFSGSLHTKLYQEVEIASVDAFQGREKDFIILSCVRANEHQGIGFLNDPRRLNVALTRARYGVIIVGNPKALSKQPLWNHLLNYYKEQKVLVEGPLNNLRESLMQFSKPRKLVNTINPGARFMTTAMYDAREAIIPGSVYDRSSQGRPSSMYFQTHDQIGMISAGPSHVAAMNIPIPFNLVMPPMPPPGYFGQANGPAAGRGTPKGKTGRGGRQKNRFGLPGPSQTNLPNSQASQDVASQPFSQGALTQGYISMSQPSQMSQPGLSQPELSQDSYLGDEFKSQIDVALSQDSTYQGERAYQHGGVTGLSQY

Variants of: B1
Settings: with rent1_human UPF1, Q92900

Row | effect of a mutation on the interaction | Variant
1 | disrupting interaction | M1173E

Variants of: B1
Settings: with rent1_human UPF1, Q92900
Remark: another data set of the same source

Row | effect of a mutation on the interaction | Variant
2 | disrupting interaction | L1174E

Variants of: B1
Settings: with rent1_human UPF1, Q92900
Remark: another data set of the same source

Row | effect of a mutation on the interaction | Variant
3 | decreasing interaction | E1123R

Variants of: B1
Settings: with rent1_human UPF1, Q92900
Remark: another data set of the same source

Row | effect of a mutation on the interaction | Variant
4 | decreasing interaction | M1121E

Variants of: B1
Settings: with rent1_human UPF1, Q92900
Remark: another data set of the same source

Row | effect of a mutation on the interaction | Variant
5 | disrupting interaction | F1171E

Variants of: B1
Settings: with rent1_human UPF1, Q92900
Remark: another data set of the same source

Row | effect of a mutation on the interaction | Variant
6 | decreasing interaction | M1120E

Variants of: B1
Settings: with rent1_human UPF1, Q92900
Remark: another data set of the same source

Row | effect of a mutation on the interaction | Variant
7 | disrupting interaction | F1113E

Variants of: B1
Settings: with rent1_human UPF1, Q92900
Remark: another data set of the same source

Row | effect of a mutation on the interaction | Variant
8 | decreasing interaction | R1176E

Variants of: B1
Settings: with rent1_human UPF1, Q92900
Remark: another data set of the same source

Row | effect of a mutation on the interaction | Variant
9 | decreasing interaction | M1169E
